For this experiment, the target named is Ag85b protein from Mycobacterium tuberculosis (poly-His tagged test protein) (Mycobacterium tuberculosis).

Regarding “splenocytes of mice injected with Sbi-III-IV-Ag85b (cells without a defined receptor)”, the Secreted IFN-gamma in the tissue culture supernatant (ELISA) was found to be 4 fold.

The values above are taken from patent publication US20190282683A1.
